According to publication PMC4392886 (Innate immunity, 2014):
No end group written: not given here.

Molecular target: recombinant human TLR2 ectodomain (human, UniProt O60603 19-590, N-linked glycans, predominantly of the high-mannose type)
Assay: native gel or EMSA

Sequence of recombinant human TLR2 ectodomain (O60603 19-590): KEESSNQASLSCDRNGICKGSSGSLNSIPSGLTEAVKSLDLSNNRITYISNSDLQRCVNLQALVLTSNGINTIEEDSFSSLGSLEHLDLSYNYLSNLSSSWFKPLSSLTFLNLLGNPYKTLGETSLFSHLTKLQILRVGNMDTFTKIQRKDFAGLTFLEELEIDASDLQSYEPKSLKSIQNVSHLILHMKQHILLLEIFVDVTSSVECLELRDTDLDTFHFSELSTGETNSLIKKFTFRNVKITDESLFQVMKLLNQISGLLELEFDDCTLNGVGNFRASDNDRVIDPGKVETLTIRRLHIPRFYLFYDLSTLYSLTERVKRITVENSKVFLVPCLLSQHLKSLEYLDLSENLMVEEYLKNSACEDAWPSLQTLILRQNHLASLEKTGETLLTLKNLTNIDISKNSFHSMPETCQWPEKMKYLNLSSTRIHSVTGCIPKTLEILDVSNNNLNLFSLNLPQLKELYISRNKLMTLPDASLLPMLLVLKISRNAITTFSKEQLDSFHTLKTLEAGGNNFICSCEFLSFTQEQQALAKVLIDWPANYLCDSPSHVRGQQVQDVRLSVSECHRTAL

B1: S-(2,3-bis-palmitoyloxypropyl)-Cys-Gly-Asp-Pro-Lys-His-Pro-Lys-Ser-Phe-K-Aca-Aca-Fluorescein (peptide)
peptide: C(2,3‑bis‑palmitoyloxypropyl)GDPKHPKSFK-{Aca-Aca-Fluorescein}
binding result: binds
